In publication PMC11661440, “TNIK: A redox sensor in endothelial cell permeability” (Science Advances, 2024):

Target: the molecule itself
Assay: cross-linking; disulfide-linked species of purified GST-TNIK KD; oxidised in vitro with 50 uM H2O2 at 30°C for 15 min or without H2O2 (air oxidation); nonreducing (-DTT) or reducing (+DTT) SDS-PAGE and Western blotting

B1: Recombinant GST-tagged TNIK kinase domain (human amino acids 1 to 367) (domain or fragment, UniProt Q9UKE5 1-367, looked up)
chain: MASDSPARSLDEIDLSALRDPAGIFELVELVGNGTYGQVYKGRHVKTGQLAAIKVMDVTGDEEEEIKQEINMLKKYSHHRNIATYYGAFIKKNPPGMDDQLWLVMEFCGAGSVTDLIKNTKGNTLKEEWIAYICREILRGLSHLHQHKVIHRDIKGQNVLLTENAEVKLVDFGVSAQLDRTVGRRNTFIGTPYWMAPEVIACDENPDATYDFKSDLWSLGITAIEMAEGAPPLCDMHPMRALFLIPRNPAPRLKSKKWSKKFQSFIESCLVKNHSQRPATEQLMKHPFIRDQPNERQVRIQLKDHIDRTKKKRGEKDETEYEYSGSEEEEEENDSGEPSSILNLPGESTLRRDFLRLQLANKERSEA
notes: Oxidised in vitro with 50 uM H2O2 (30°C, 15 min) or left without H2O2; The disulfide-linked species were seen on nonreducing SDS-PAGE; GST is kept on the protein; also called GST-TNIK KD; TNIK KD; source: bought: Thermo Fisher Scientific, recombinant purified
binding result: binds
